Among the data in paper PMC2869534 are binding signal (fold lower K1/2 than apo) and K half values, retold here.

The test system of the data set is SNF2h (human). As to the kind of experiment: Cy3 fluorescence intensity titration.

The substance 0-601-40 nucleosome, Cy3 registered a binding signal (fold lower K1/2 than apo) of 3.

With 0-601-78 nucleosome, Cy3, the K half amounted to 353 nM.
